In PMC8124314:
Read-outs that look alike come from different tables or passages of the source.

Experiments:
[1] = target: MBP-fused epithelial cadherin (MBP-eCAD); assay: SPR
[2] = target: MBP-fused epithelial cadherin (MBP-eCAD); assay: SPR; remark: listed apart in the source
[3] = target: E-cadherin (Homo sapiens) (UniProt P12830); settings: cited from earlier work

| Kd [1] | koff [1] | kon [1] | Kd [2] | Substance | Kd [3] |
| --- | --- | --- | --- | --- | --- |
| 197 nM | 0.000696 s⁻¹ | 4650 M⁻¹ s⁻¹ | 197 µM | MBP-fused epithelial cadherin (MBP-eCAD) (domain or fragment) | – |
| – | – | – | – | E-cadherin (from UniProt P12830) | 100 µM |
